Test results reported in patent publication EP4803547A1 (Biontech (Zhuhai) Pharmaceuticals R&D Co., Ltd, dated 2026).

Key:
human CD40 on cells = biological target: T1, human CD40 on cells (human, UniProt P25942 21-277); test: flow cytometry on CHO-hCD40 cells, anti-human IgG-Fc PE
T1 construct: whole, on cells; One molecule is used for human CD40 on the three cell types; also called CHO-hCD40; CHO-S cells overexpressing human CD40

human PD-1 on cells = biological target: T2, human PD-1 on cells (human, UniProt Q15116 25-288); test: flow cytometry on CHO-hPD-1 cells, anti-human IgG-Fc PE
T2 construct: whole, on cells; also called CHO-hPD-1; CHO-S cells overexpressing human PD-1
T2 sequence (Q15116 25-288): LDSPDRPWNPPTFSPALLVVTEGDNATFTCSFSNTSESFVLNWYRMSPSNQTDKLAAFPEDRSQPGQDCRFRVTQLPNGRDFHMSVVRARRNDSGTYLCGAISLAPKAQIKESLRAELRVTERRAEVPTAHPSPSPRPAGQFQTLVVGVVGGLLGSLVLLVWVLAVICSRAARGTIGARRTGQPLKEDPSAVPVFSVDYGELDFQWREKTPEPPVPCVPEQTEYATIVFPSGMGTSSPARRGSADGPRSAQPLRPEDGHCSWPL

human PD-1 protein = human PD-1 protein (human, UniProt Q15116 25-167, limits assumed); test: BLI (ForteBio), antibody on AHQ sensor, 100 nM antigen, 1:1 model
Sequence of human PD-1 protein (Q15116 25-167 limits assumed): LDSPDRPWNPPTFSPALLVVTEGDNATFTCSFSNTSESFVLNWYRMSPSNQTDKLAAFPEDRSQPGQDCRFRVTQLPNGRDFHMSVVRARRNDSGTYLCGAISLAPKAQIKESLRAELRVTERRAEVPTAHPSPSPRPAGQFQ

human CD40 protein = human CD40 protein (human, UniProt P25942 21-193, limits assumed); test: as above
Sequence of human CD40 protein (P25942 21-193 limits assumed): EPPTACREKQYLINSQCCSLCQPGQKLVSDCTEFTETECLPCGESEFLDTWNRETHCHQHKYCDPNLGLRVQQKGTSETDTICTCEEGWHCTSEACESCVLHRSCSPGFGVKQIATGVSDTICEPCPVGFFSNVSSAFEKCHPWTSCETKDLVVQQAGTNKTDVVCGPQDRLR

T1 sequence (P25942 21-277): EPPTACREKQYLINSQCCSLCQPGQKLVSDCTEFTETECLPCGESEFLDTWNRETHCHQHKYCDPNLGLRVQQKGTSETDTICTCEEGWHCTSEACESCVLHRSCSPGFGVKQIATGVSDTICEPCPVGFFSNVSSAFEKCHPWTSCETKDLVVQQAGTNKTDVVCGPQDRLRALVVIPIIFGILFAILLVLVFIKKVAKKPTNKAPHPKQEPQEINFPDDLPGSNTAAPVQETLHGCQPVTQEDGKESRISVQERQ

binding result (human CD40 on cells)	binding result (human PD-1 on cells)	binding result (human PD-1 protein)	binding result (human CD40 protein)	Binder
binds	binds	binds	binds	PD1(pembro)xCD40(non-blocker, ADI-55164) (bispecific antibody, human IgG1, kappa, also called BsAb-3; PD1(pembro)xCD40(ADI-55164)) heavy: not shown light: EIVLTQSPATLSLSPGERATLSCRASKGVSTSGYSYLHWYQQKPGQAPRLLIYLASYLESGVPARFSGSGSGTDFTLTISSLEPEDFAVYYCQHSRDLPLTFGGGTKVEIKRTVAAPSVFIFPPSDEQLKSGTASVVCLLNNFYPREAKVQWKVDNALQSGNSQESVTEQDSKDSTYSLSSTLTLSKADYEKHKVYACEVTHQGLSSPVTKSFNRGEC
binds	binds	binds	binds	PD1xCD40(blocker, ADI-55147) (bispecific antibody, human IgG1, kappa, also called BsAb-2) heavy: not shown light: EIVLTQSPATLSLSPGERATLSCRASKSVSTSGLNYVHWYQRKPGQAPRLLIYLGSYLDSGVPARFSGSGSGTDFTLTISSLEPEDFAVYYCQQSWELPLTFGGGTKVEIKRTVAAPSVFIFPPSDEQLKSGTASVVCLLNNFYPREAKVQWKVDNALQSGNSQESVTEQDSKDSTYSLSSTLTLSKADYEKHKVYACEVTHQGLSSPVTKSFNRGEC
